In one test the target is T1, recombinant Aβ1-42.
T1 construct: Coated at 0.5 µg/ml on ELISA plates; also called Amyloid Beta (Aβ1-42)
Briefly: indirect ELISA, plates coated with recombinant Aβ1-42. (In an ELISA, binding on a coated surface is turned into a signal by an enzyme label.)

In test [1] the target is T2, recombinant murine transferrin receptor 1 (mTfR1), extracellular domain fused to a His-tag (murine, UniProt Q62351 89-763).
T2 construct: Position of the His-tag (N or C) unknown; also called recombinant mTfR1; murine TfR1; not shown: His-tag
T2 sequence (Q62351 89-763): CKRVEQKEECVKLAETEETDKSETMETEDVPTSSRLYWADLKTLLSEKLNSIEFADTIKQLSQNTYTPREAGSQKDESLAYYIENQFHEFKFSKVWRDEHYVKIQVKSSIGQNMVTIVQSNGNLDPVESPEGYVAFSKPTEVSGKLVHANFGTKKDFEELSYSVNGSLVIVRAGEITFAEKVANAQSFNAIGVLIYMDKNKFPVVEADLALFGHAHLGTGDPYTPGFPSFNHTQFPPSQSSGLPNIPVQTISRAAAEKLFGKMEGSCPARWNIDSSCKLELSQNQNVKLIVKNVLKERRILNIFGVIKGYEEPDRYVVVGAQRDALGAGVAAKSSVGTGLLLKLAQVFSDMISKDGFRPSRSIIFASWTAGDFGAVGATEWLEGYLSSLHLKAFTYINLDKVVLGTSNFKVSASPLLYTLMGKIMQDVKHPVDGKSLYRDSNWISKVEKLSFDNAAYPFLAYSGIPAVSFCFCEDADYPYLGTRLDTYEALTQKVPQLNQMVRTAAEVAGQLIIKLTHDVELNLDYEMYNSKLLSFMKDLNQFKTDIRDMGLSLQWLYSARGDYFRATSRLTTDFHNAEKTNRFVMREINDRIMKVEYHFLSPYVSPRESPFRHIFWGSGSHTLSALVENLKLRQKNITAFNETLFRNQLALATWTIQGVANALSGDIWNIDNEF
Briefly: BLI (Octet), mTfR1 captured on holo-transferrin sensors, analyte 50 nM.

T1 sequence (peptide, as listed by the source): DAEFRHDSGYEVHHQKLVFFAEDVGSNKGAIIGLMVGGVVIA

B1: mAb158-scLc-8D3-Ig.12 (bispecific antibody, human IgG1, kappa)
heavy: not shown
chain: DIVMTQAPLSLPVSLGDQASISCRSSQSIVHSNGNTYLEWYLQKPGQSPKLLIYKVSNRFSGVPDRFSGSGSGTDFTLKISRVEAEDLGIYYCFQGSHVPPTFGGGTKLEIKRADAAPTVSIFPPSSEQLTSGGASVVCFLNNFYPKDINVKWKIDGSERQNGVLNSWTDQDSKDSTYSMSSTLTLTKDEYERHNSYTCEATHKTSTSPIVKSFNRNECGGGGSGGGGSGGGGSGGGGSGGGGSEVQLVESGGGLVQPGNSLTLSCVASGFTFSNYGMHWIRQAPKKGLEWIAMIYYDSSKMNYADTVKGRFTISRDNSKNTLYLEMNSLRSEDTAMYYCAVPTSHYVVDVWGQGVSVTVSSGGGGSGGGGSGGGGSDIQMTQSPASLSASLEEIVTITCQASQDIGNWLAWYQQKPGKSPQLLIYGATSLADGVPSRFSGSRSGTQFSLKISRVQVEDIGIYYCLQAYNTPWTFGGGTKLELKRGGGGSGGGGSGGGGSGGGGSDIVMTQAPLSLPVSLGDQASISCRSSQSIVHSNGNTYLEWYLQKPGQSPKLLIYKVSNRFSGVPDRFSGSGSGTDFTLKISRVEAEDLGIYYCFQGSHVPPTFGGGTKLEIKRADAAPTVSIFPPSSEQLTSGGASVVCFLNNFYPKDINVKWKIDGSERQNGVLNSWTDQDSKDSTYSMSSTLTLTKDEYERHNSYTCEATHKTSTSPIVKSFNRNEC
notes: Format [LC-L1-scBM-L2-LC]; also called mAb158-scLc-Ig.12
For B1, the binding result (in the test with recombinant Aβ1-42; in test [1]) was “binds” throughout.

B2: mAb158-scLc-8D3-Ig.14 (bispecific antibody, human IgG1, kappa)
heavy: not shown
chain: DIVMTQAPLSLPVSLGDQASISCRSSQSIVHSNGNTYLEWYLQKPGQSPKLLIYKVSNRFSGVPDRFSGSGSGTDFTLKISRVEAEDLGIYYCFQGSHVPPTFGGGTKLEIKRADAAPTVSIFPPSSEQLTSGGASVVCFLNNFYPKDINVKWKIDGSERQNGVLNSWTDQDSKDSTYSMSSTLTLTKDEYERHNSYTCEATHKTSTSPIVKSFNRNECGGGGSGGGGSGGGGSGGGGSGGGGSDIQMTQSPASLSASLEEIVTITCQASQDIGNWLAWYQQKPGKSPQLLIYGATSLADGVPSRFSGSRSGTQFSLKISRVQVEDIGIYYCLQAYNTPWTFGGGTKLELKRGGGGSGGGGSGGGGSEVQLVESGGGLVQPGNSLTLSCVASGFTFSNYGMHWIRQAPKKGLEWIAMIYYDSSKMNYADTVKGRFTISRDNSKNTLYLEMNSLRSEDTAMYYCAVPTSHYVVDVWGQGVSVTVSSGGGGSGGGGSGGGGSDIVMTQAPLSLPVSLGDQASISCRSSQSIVHSNGNTYLEWYLQKPGQSPKLLIYKVSNRFSGVPDRFSGSGSGTDFTLKISRVEAEDLGIYYCFQGSHVPPTFGGGTKLEIKRADAAPTVSIFPPSSEQLTSGGASVVCFLNNFYPKDINVKWKIDGSERQNGVLNSWTDQDSKDSTYSMSSTLTLTKDEYERHNSYTCEATHKTSTSPIVKSFNRNEC
notes: Format [LC-L1-scBM-L2-LC]; also called mAb158-scLc-Ig.14
B2: the binding result (with recombinant Aβ1-42; in test [1]) was “binds” throughout.

B3: mAb158-scLc-8D3-Ig.8 (bispecific antibody, human IgG1, kappa)
heavy: not shown
chain: DIVMTQAPLSLPVSLGDQASISCRSSQSIVHSNGNTYLEWYLQKPGQSPKLLIYKVSNRFSGVPDRFSGSGSGTDFTLKISRVEAEDLGIYYCFQGSHVPPTFGGGTKLEIKRADAAPTVSIFPPSSEQLTSGGASVVCFLNNFYPKDINVKWKIDGSERQNGVLNSWTDQDSKDSTYSMSSTLTLTKDEYERHNSYTCEATHKTSTSPIVKSFNRNECGGGGSGGGGSGGGGSEVQLVESGGGLVQPGNSLTLSCVASGFTFSNYGMHWIRQAPKKGLEWIAMIYYDSSKMNYADTVKGRFTISRDNSKNTLYLEMNSLRSEDTAMYYCAVPTSHYVVDVWGQGVSVTVSSGGGGSGGGGSGGGGSDIQMTQSPASLSASLEEIVTITCQASQDIGNWLAWYQQKPGKSPQLLIYGATSLADGVPSRFSGSRSGTQFSLKISRVQVEDIGIYYCLQAYNTPWTFGGGTKLELKRGGGGSGGGGSGGGGSDIVMTQAPLSLPVSLGDQASISCRSSQSIVHSNGNTYLEWYLQKPGQSPKLLIYKVSNRFSGVPDRFSGSGSGTDFTLKISRVEAEDLGIYYCFQGSHVPPTFGGGTKLEIKRADAAPTVSIFPPSSEQLTSGGASVVCFLNNFYPKDINVKWKIDGSERQNGVLNSWTDQDSKDSTYSMSSTLTLTKDEYERHNSYTCEATHKTSTSPIVKSFNRNEC
notes: Format [LC-L1-scBM-L2-LC]
Consider B3, for which the binding result (in the test with recombinant Aβ1-42; in test [1]) was “binds” each time.

B4: mAb158-scLc-8D3-Ig.9 (bispecific antibody, human IgG1, kappa)
heavy: not shown
chain: DIVMTQAPLSLPVSLGDQASISCRSSQSIVHSNGNTYLEWYLQKPGQSPKLLIYKVSNRFSGVPDRFSGSGSGTDFTLKISRVEAEDLGIYYCFQGSHVPPTFGGGTKLEIKRADAAPTVSIFPPSSEQLTSGGASVVCFLNNFYPKDINVKWKIDGSERQNGVLNSWTDQDSKDSTYSMSSTLTLTKDEYERHNSYTCEATHKTSTSPIVKSFNRNECGGGGSGGGGSGGGGSGGGGSEVQLVESGGGLVQPGNSLTLSCVASGFTFSNYGMHWIRQAPKKGLEWIAMIYYDSSKMNYADTVKGRFTISRDNSKNTLYLEMNSLRSEDTAMYYCAVPTSHYVVDVWGQGVSVTVSSGGGGSGGGGSGGGGSDIQMTQSPASLSASLEEIVTITCQASQDIGNWLAWYQQKPGKSPQLLIYGATSLADGVPSRFSGSRSGTQFSLKISRVQVEDIGIYYCLQAYNTPWTFGGGTKLELKRGGGGSGGGGSGGGGSGGGGSDIVMTQAPLSLPVSLGDQASISCRSSQSIVHSNGNTYLEWYLQKPGQSPKLLIYKVSNRFSGVPDRFSGSGSGTDFTLKISRVEAEDLGIYYCFQGSHVPPTFGGGTKLEIKRADAAPTVSIFPPSSEQLTSGGASVVCFLNNFYPKDINVKWKIDGSERQNGVLNSWTDQDSKDSTYSMSSTLTLTKDEYERHNSYTCEATHKTSTSPIVKSFNRNEC
notes: Format [LC-L1-scBM-L2-LC]
Turning to B4, the binding result (with recombinant Aβ1-42; in test [1]) was “binds” throughout.

B5: mAb158-scLc-8D3-Ig.7 (bispecific antibody, human IgG1, kappa)
heavy: not shown
chain: DIVMTQAPLSLPVSLGDQASISCRSSQSIVHSNGNTYLEWYLQKPGQSPKLLIYKVSNRFSGVPDRFSGSGSGTDFTLKISRVEAEDLGIYYCFQGSHVPPTFGGGTKLEIKRADAAPTVSIFPPSSEQLTSGGASVVCFLNNFYPKDINVKWKIDGSERQNGVLNSWTDQDSKDSTYSMSSTLTLTKDEYERHNSYTCEATHKTSTSPIVKSFNRNECGGGGSGGGGSEVQLVESGGGLVQPGNSLTLSCVASGFTFSNYGMHWIRQAPKKGLEWIAMIYYDSSKMNYADTVKGRFTISRDNSKNTLYLEMNSLRSEDTAMYYCAVPTSHYVVDVWGQGVSVTVSSGGGGSGGGGSGGGGSDIQMTQSPASLSASLEEIVTITCQASQDIGNWLAWYQQKPGKSPQLLIYGATSLADGVPSRFSGSRSGTQFSLKISRVQVEDIGIYYCLQAYNTPWTFGGGTKLELKRGGGGSGGGGSDIVMTQAPLSLPVSLGDQASISCRSSQSIVHSNGNTYLEWYLQKPGQSPKLLIYKVSNRFSGVPDRFSGSGSGTDFTLKISRVEAEDLGIYYCFQGSHVPPTFGGGTKLEIKRADAAPTVSIFPPSSEQLTSGGASVVCFLNNFYPKDINVKWKIDGSERQNGVLNSWTDQDSKDSTYSMSSTLTLTKDEYERHNSYTCEATHKTSTSPIVKSFNRNEC
notes: Format [LC-L1-scBM-L2-LC]
On to B5, for which the binding result (with recombinant Aβ1-42; in test [1]) was “binds” in each case.

B6: mAb158-scLc-15G11-1-Ig.1 (bispecific antibody, human IgG1, kappa)
heavy: not shown
chain: DIVMTQAPLSLPVSLGDQASISCRSSQSIVHSNGNTYLEWYLQKPGQSPKLLIYKVSNRFSGVPDRFSGSGSGTDFTLKISRVEAEDLGIYYCFQGSHVPPTFGGGTKLEIKRTVAAPSVFIFPPSDEQLKSGTASVVCLLNNFYPREAKVQWKVDNALQSGNSQESVTEQDSKDSTYSLSSTLTLSKADYEKHKVYACEVTHQGLSSPVTKSFNRGECGGGGSGGGGSGGGGSEVQLVQSGAEVKKPGASVKVSCKASGYTFTSYWMHWVRQAPGQRLEWIGEINPTNGRTNYIEKFKSRATLTVDKSASTAYMELSSLRSEDTAVYYCARGTRAYHYWGQGTMVTVSSGGGGSGGGGSGGGGSDIQMTQSPSSLSASVGDRVTITCRASDNLYSNLAWYQQKPGKSPKLLVYDATNLADGVPSRFSGSGSGTDYTLTISSLQPEDFATYYCQHFWGTPLTFGQGTKVEIKGGGGSGGGGSGGGGSDIVMTQAPLSLPVSLGDQASISCRSSQSIVHSNGNTYLEWYLQKPGQSPKLLIYKVSNRFSGVPDRFSGSGSGTDFTLKISRVEAEDLGIYYCFQGSHVPPTFGGGTKLEIKRTVAAPSVFIFPPSDEQLKSGTASVVCLLNNFYPREAKVQWKVDNALQSGNSQESVTEQDSKDSTYSLSSTLTLSKADYEKHKVYACEVTHQGLSSPVTKSFNRGEC
notes: Format [LC-L1-scBM-L2-LC]
With B6, the binding result with recombinant Aβ1-42 is listed as “binds”.

B7: mAb158-scLc-8D3-Ig.11 (bispecific antibody, human IgG1, kappa)
heavy: not shown
chain: DIVMTQAPLSLPVSLGDQASISCRSSQSIVHSNGNTYLEWYLQKPGQSPKLLIYKVSNRFSGVPDRFSGSGSGTDFTLKISRVEAEDLGIYYCFQGSHVPPTFGGGTKLEIKRADAAPTVSIFPPSSEQLTSGGASVVCFLNNFYPKDINVKWKIDGSERQNGVLNSWTDQDSKDSTYSMSSTLTLTKDEYERHNSYTCEATHKTSTSPIVKSFNRNECGGGGSGGGGSGGGGSGGGGSGGGGSEVQLVESGGGLVQPGNSLTLSCVASGFTFSNYGMHWIRQAPKKGLEWIAMIYYDSSKMNYADTVKGRFTISRDNSKNTLYLEMNSLRSEDTAMYYCAVPTSHYVVDVWGQGVSVTVSSGGGGSGGGGSGGGGSDIQMTQSPASLSASLEEIVTITCQASQDIGNWLAWYQQKPGKSPQLLIYGATSLADGVPSRFSGSRSGTQFSLKISRVQVEDIGIYYCLQAYNTPWTFGGGTKLELKRGGGGSGGGGSGGGGSDIVMTQAPLSLPVSLGDQASISCRSSQSIVHSNGNTYLEWYLQKPGQSPKLLIYKVSNRFSGVPDRFSGSGSGTDFTLKISRVEAEDLGIYYCFQGSHVPPTFGGGTKLEIKRADAAPTVSIFPPSSEQLTSGGASVVCFLNNFYPKDINVKWKIDGSERQNGVLNSWTDQDSKDSTYSMSSTLTLTKDEYERHNSYTCEATHKTSTSPIVKSFNRNEC
notes: Format [LC-L1-scBM-L2-LC]
In the case of B7, the binding result (with recombinant Aβ1-42; in test [1]) was “binds” throughout.

B8: mAb158-scLc-8D3-Ig.10 (bispecific antibody, human IgG1, kappa)
heavy: not shown
chain: DIVMTQAPLSLPVSLGDQASISCRSSQSIVHSNGNTYLEWYLQKPGQSPKLLIYKVSNRFSGVPDRFSGSGSGTDFTLKISRVEAEDLGIYYCFQGSHVPPTFGGGTKLEIKRADAAPTVSIFPPSSEQLTSGGASVVCFLNNFYPKDINVKWKIDGSERQNGVLNSWTDQDSKDSTYSMSSTLTLTKDEYERHNSYTCEATHKTSTSPIVKSFNRNECGGGGSGGGGSGGGGSGGGGSGGGGSEVQLVESGGGLVQPGNSLTLSCVASGFTFSNYGMHWIRQAPKKGLEWIAMIYYDSSKMNYADTVKGRFTISRDNSKNTLYLEMNSLRSEDTAMYYCAVPTSHYVVDVWGQGVSVTVSSGGGGSGGGGSGGGGSDIQMTQSPASLSASLEEIVTITCQASQDIGNWLAWYQQKPGKSPQLLIYGATSLADGVPSRFSGSRSGTQFSLKISRVQVEDIGIYYCLQAYNTPWTFGGGTKLELKRGGGGSGGGGSDIVMTQAPLSLPVSLGDQASISCRSSQSIVHSNGNTYLEWYLQKPGQSPKLLIYKVSNRFSGVPDRFSGSGSGTDFTLKISRVEAEDLGIYYCFQGSHVPPTFGGGTKLEIKRADAAPTVSIFPPSSEQLTSGGASVVCFLNNFYPKDINVKWKIDGSERQNGVLNSWTDQDSKDSTYSMSSTLTLTKDEYERHNSYTCEATHKTSTSPIVKSFNRNEC
notes: Format [LC-L1-scBM-L2-LC]
For the molecule B8, the binding result (in the test with recombinant Aβ1-42; in test [1]) was “binds” in each case.
